# Measured values published in patent US20240240209A1, “SYNTHESIS OF ENANTIOPURE CIS-A-IRONE FROM A RENEWABLE CARBON SOURCE” (Agency for Science, Technology and Research, priority 2021, published 2024).
# Assay: Cell lysate reaction of pMT enzymes with psi-ionone, irones quantified by HS-SPME-GCMS
# Format: biochemical
# Conditions: pMT1_E153 mutants; AUC vs non-mutated (=1)
# Summary of the method: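 pMT1 site-saturation mutants were expressed in E. coli BL21(DE3) and lysed, and lysates were incubated 2 days at 28 °C with 0.2 mM SAM and 10 mg/L psi-ionone (plus caryophyllene) in 50 mM Tris pH 7, 10 mM MgCl2. Cis-α-irone was measured by HS-SPME-GCMS peak area and given as fold change over non-mutated enzyme.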
row,Molecule,fold change in cis-α-irone produced
1,pMT1_E153R: pMT1 with E153R (protein) MPQEARTPQQQVTADEVGDWYDKFGEVYHLTLGESVHCGLWFPPDAPVPQDMELVTMSSQAQDRYTDYLIETLDPKAGQHLLDIGCGTGRTALKAARQRGIAVTGVAVSKEQIAAANRLAAGHGLTERLTFEVADAMRLPYEDESFDCAWAIRSLCHMDRAKALGEAWRVLKPGGDLLVLESVVTEELTEPETALFETLYAANVPPRLGEFFDIVSGAGFHTLSLKDLSANLAMTMNVFALGVYSRRAEFTERFGAEFVDGLLAGLGSAQETLIRKTRFFMATLRKPAV,0.0
2,pMT1_E153Q: pMT1 with E153Q (protein) MPQEARTPQQQVTADEVGDWYDKFGEVYHLTLGESVHCGLWFPPDAPVPQDMELVTMSSQAQDRYTDYLIETLDPKAGQHLLDIGCGTGRTALKAARQRGIAVTGVAVSKEQIAAANRLAAGHGLTERLTFEVADAMRLPYEDESFDCAWAIQSLCHMDRAKALGEAWRVLKPGGDLLVLESVVTEELTEPETALFETLYAANVPPRLGEFFDIVSGAGFHTLSLKDLSANLAMTMNVFALGVYSRRAEFTERFGAEFVDGLLAGLGSAQETLIRKTRFFMATLRKPAV,0.0
3,pMT1_E153P: pMT1 with E153P (protein) MPQEARTPQQQVTADEVGDWYDKFGEVYHLTLGESVHCGLWFPPDAPVPQDMELVTMSSQAQDRYTDYLIETLDPKAGQHLLDIGCGTGRTALKAARQRGIAVTGVAVSKEQIAAANRLAAGHGLTERLTFEVADAMRLPYEDESFDCAWAIPSLCHMDRAKALGEAWRVLKPGGDLLVLESVVTEELTEPETALFETLYAANVPPRLGEFFDIVSGAGFHTLSLKDLSANLAMTMNVFALGVYSRRAEFTERFGAEFVDGLLAGLGSAQETLIRKTRFFMATLRKPAV,0.0
4,pMT1_E153N: pMT1 with E153N (protein) MPQEARTPQQQVTADEVGDWYDKFGEVYHLTLGESVHCGLWFPPDAPVPQDMELVTMSSQAQDRYTDYLIETLDPKAGQHLLDIGCGTGRTALKAARQRGIAVTGVAVSKEQIAAANRLAAGHGLTERLTFEVADAMRLPYEDESFDCAWAINSLCHMDRAKALGEAWRVLKPGGDLLVLESVVTEELTEPETALFETLYAANVPPRLGEFFDIVSGAGFHTLSLKDLSANLAMTMNVFALGVYSRRAEFTERFGAEFVDGLLAGLGSAQETLIRKTRFFMATLRKPAV,0.0

# Same assay, conditions: pMT1_M236 mutants; AUC vs non-mutated (=1)
row,Molecule,fold change in cis-α-irone produced
1,pMT1_M236N: pMT1 with M236N (protein) MPQEARTPQQQVTADEVGDWYDKFGEVYHLTLGESVHCGLWFPPDAPVPQDMELVTMSSQAQDRYTDYLIETLDPKAGQHLLDIGCGTGRTALKAARQRGIAVTGVAVSKEQIAAANRLAAGHGLTERLTFEVADAMRLPYEDESFDCAWAIESLCHMDRAKALGEAWRVLKPGGDLLVLESVVTEELTEPETALFETLYAANVPPRLGEFFDIVSGAGFHTLSLKDLSANLAMTNNVFALGVYSRRAEFTERFGAEFVDGLLAGLGSAQETLIRKTRFFMATLRKPAV,3.9
2,pMT1_M236R: pMT1 with M236R (protein) MPQEARTPQQQVTADEVGDWYDKFGEVYHLTLGESVHCGLWFPPDAPVPQDMELVTMSSQAQDRYTDYLIETLDPKAGQHLLDIGCGTGRTALKAARQRGIAVTGVAVSKEQIAAANRLAAGHGLTERLTFEVADAMRLPYEDESFDCAWAIESLCHMDRAKALGEAWRVLKPGGDLLVLESVVTEELTEPETALFETLYAANVPPRLGEFFDIVSGAGFHTLSLKDLSANLAMTRNVFALGVYSRRAEFTERFGAEFVDGLLAGLGSAQETLIRKTRFFMATLRKPAV,0.0
3,pMT1_M236P: pMT1 with M236P (protein) MPQEARTPQQQVTADEVGDWYDKFGEVYHLTLGESVHCGLWFPPDAPVPQDMELVTMSSQAQDRYTDYLIETLDPKAGQHLLDIGCGTGRTALKAARQRGIAVTGVAVSKEQIAAANRLAAGHGLTERLTFEVADAMRLPYEDESFDCAWAIESLCHMDRAKALGEAWRVLKPGGDLLVLESVVTEELTEPETALFETLYAANVPPRLGEFFDIVSGAGFHTLSLKDLSANLAMTPNVFALGVYSRRAEFTERFGAEFVDGLLAGLGSAQETLIRKTRFFMATLRKPAV,0.0
4,pMT1_M236S: pMT1 with M236S (protein) MPQEARTPQQQVTADEVGDWYDKFGEVYHLTLGESVHCGLWFPPDAPVPQDMELVTMSSQAQDRYTDYLIETLDPKAGQHLLDIGCGTGRTALKAARQRGIAVTGVAVSKEQIAAANRLAAGHGLTERLTFEVADAMRLPYEDESFDCAWAIESLCHMDRAKALGEAWRVLKPGGDLLVLESVVTEELTEPETALFETLYAANVPPRLGEFFDIVSGAGFHTLSLKDLSANLAMTSNVFALGVYSRRAEFTERFGAEFVDGLLAGLGSAQETLIRKTRFFMATLRKPAV,0.7
5,pMT1_M236Q: pMT1 with M236Q (protein) MPQEARTPQQQVTADEVGDWYDKFGEVYHLTLGESVHCGLWFPPDAPVPQDMELVTMSSQAQDRYTDYLIETLDPKAGQHLLDIGCGTGRTALKAARQRGIAVTGVAVSKEQIAAANRLAAGHGLTERLTFEVADAMRLPYEDESFDCAWAIESLCHMDRAKALGEAWRVLKPGGDLLVLESVVTEELTEPETALFETLYAANVPPRLGEFFDIVSGAGFHTLSLKDLSANLAMTQNVFALGVYSRRAEFTERFGAEFVDGLLAGLGSAQETLIRKTRFFMATLRKPAV,0.0

# Same assay, conditions: pMT1_R160 mutants; AUC vs non-mutated (=1)
row,Molecule,fold change in cis-α-irone produced
1,pMT1_R160P: pMT1 with R160P (protein) MPQEARTPQQQVTADEVGDWYDKFGEVYHLTLGESVHCGLWFPPDAPVPQDMELVTMSSQAQDRYTDYLIETLDPKAGQHLLDIGCGTGRTALKAARQRGIAVTGVAVSKEQIAAANRLAAGHGLTERLTFEVADAMRLPYEDESFDCAWAIESLCHMDPAKALGEAWRVLKPGGDLLVLESVVTEELTEPETALFETLYAANVPPRLGEFFDIVSGAGFHTLSLKDLSANLAMTMNVFALGVYSRRAEFTERFGAEFVDGLLAGLGSAQETLIRKTRFFMATLRKPAV,0.6
2,pMT1_R160S: pMT1 with R160S (protein) MPQEARTPQQQVTADEVGDWYDKFGEVYHLTLGESVHCGLWFPPDAPVPQDMELVTMSSQAQDRYTDYLIETLDPKAGQHLLDIGCGTGRTALKAARQRGIAVTGVAVSKEQIAAANRLAAGHGLTERLTFEVADAMRLPYEDESFDCAWAIESLCHMDSAKALGEAWRVLKPGGDLLVLESVVTEELTEPETALFETLYAANVPPRLGEFFDIVSGAGFHTLSLKDLSANLAMTMNVFALGVYSRRAEFTERFGAEFVDGLLAGLGSAQETLIRKTRFFMATLRKPAV,0.0
3,pMT1_R160Q: pMT1 with R160Q (protein) MPQEARTPQQQVTADEVGDWYDKFGEVYHLTLGESVHCGLWFPPDAPVPQDMELVTMSSQAQDRYTDYLIETLDPKAGQHLLDIGCGTGRTALKAARQRGIAVTGVAVSKEQIAAANRLAAGHGLTERLTFEVADAMRLPYEDESFDCAWAIESLCHMDQAKALGEAWRVLKPGGDLLVLESVVTEELTEPETALFETLYAANVPPRLGEFFDIVSGAGFHTLSLKDLSANLAMTMNVFALGVYSRRAEFTERFGAEFVDGLLAGLGSAQETLIRKTRFFMATLRKPAV,1.3

# Same assay, conditions: pMT1_Y200 mutants; AUC vs non-mutated (=1)
row,Molecule,fold change in cis-α-irone produced
1,pMT1_Y200R (protein) MPQEARTPQQQVTADEVGDWYDKFGEVYHLTLGESVHCGLWFPPDAPVPQDMELVTMSSQAQDRYTDYLIETLDPKAGQHLLDIGCGTGRTALKAARQRGIAVTGVAVSKEQIAAANRLAAGHGLTERLTFEVADAMRLPYEDESFDCAWAIESLCHMDRAKALGEAWRVLKPGGDLLVLESVVTEELTEPETALFETLRAANVPPRLGEFFDIVSGAGFHTLSLKDLSANLAMTMNVFALGVYSRRAEFTERFGAEFVDGLLAGLGSAQETLIRKTRFFMATLRKPAV,0.0
2,pMT1_Y200S: pMT1 with Y200S (protein) MPQEARTPQQQVTADEVGDWYDKFGEVYHLTLGESVHCGLWFPPDAPVPQDMELVTMSSQAQDRYTDYLIETLDPKAGQHLLDIGCGTGRTALKAARQRGIAVTGVAVSKEQIAAANRLAAGHGLTERLTFEVADAMRLPYEDESFDCAWAIESLCHMDRAKALGEAWRVLKPGGDLLVLESVVTEELTEPETALFETLSAANVPPRLGEFFDIVSGAGFHTLSLKDLSANLAMTMNVFALGVYSRRAEFTERFGAEFVDGLLAGLGSAQETLIRKTRFFMATLRKPAV,0.2
3,pMT1_Y200P: pMT1 with Y200P (protein) MPQEARTPQQQVTADEVGDWYDKFGEVYHLTLGESVHCGLWFPPDAPVPQDMELVTMSSQAQDRYTDYLIETLDPKAGQHLLDIGCGTGRTALKAARQRGIAVTGVAVSKEQIAAANRLAAGHGLTERLTFEVADAMRLPYEDESFDCAWAIESLCHMDRAKALGEAWRVLKPGGDLLVLESVVTEELTEPETALFETLPAANVPPRLGEFFDIVSGAGFHTLSLKDLSANLAMTMNVFALGVYSRRAEFTERFGAEFVDGLLAGLGSAQETLIRKTRFFMATLRKPAV,0.0
4,pMT1_Y200Q: pMT1 with Y200Q (protein) MPQEARTPQQQVTADEVGDWYDKFGEVYHLTLGESVHCGLWFPPDAPVPQDMELVTMSSQAQDRYTDYLIETLDPKAGQHLLDIGCGTGRTALKAARQRGIAVTGVAVSKEQIAAANRLAAGHGLTERLTFEVADAMRLPYEDESFDCAWAIESLCHMDRAKALGEAWRVLKPGGDLLVLESVVTEELTEPETALFETLQAANVPPRLGEFFDIVSGAGFHTLSLKDLSANLAMTMNVFALGVYSRRAEFTERFGAEFVDGLLAGLGSAQETLIRKTRFFMATLRKPAV,0.1
